The record followed here is patent EP4803150A2 (Lyvgen Biopharma Holdings Limited, dated 2026).

The target of one experiment is T1, CD40 (human, UniProt P25942 21-193).
T1 construct: Whole on GS-H2-huCD40 reporter cells in the reporter assays
The experiment can be described thus: FCM or ELISA, graded.

A further experiment deals with T2, PD-L1 (human, UniProt Q9NZQ7 19-238, limits assumed).
T2 construct: On Raji cells expressing human PD-L1 in the reporter assay
The experiment can be described thus: FCM or ELISA, graded.

The target of another experiment is T3, CD137 (human, UniProt Q07011 24-186).
T3 construct: Whole on GS-H2-huCD137 reporter cells in the reporter assays; also called 4-1BB
The experiment can be described thus: FCM or ELISA, graded.

The target in another experiment is T4, CD19 (human, UniProt P15391 20-556).
T4 construct: whole, on cells
T4 sequence (looked up): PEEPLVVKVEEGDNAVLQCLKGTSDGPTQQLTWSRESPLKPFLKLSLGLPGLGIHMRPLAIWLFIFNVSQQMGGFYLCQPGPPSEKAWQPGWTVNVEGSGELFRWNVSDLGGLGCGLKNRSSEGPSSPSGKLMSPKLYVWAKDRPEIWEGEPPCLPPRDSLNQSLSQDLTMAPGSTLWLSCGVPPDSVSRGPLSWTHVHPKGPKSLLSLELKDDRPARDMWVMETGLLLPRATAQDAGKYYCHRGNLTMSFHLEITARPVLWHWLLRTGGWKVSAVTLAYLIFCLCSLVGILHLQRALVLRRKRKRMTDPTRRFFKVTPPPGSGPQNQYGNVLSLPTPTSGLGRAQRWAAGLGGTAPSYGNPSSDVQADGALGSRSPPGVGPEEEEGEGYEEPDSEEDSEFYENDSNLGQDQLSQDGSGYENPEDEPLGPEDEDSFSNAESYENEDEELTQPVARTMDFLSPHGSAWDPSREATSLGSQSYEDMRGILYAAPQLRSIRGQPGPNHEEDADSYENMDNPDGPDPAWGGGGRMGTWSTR
The experiment can be described thus: CHO cells overexpressing CD19, graded.

Numbering of substitutions follows the chain as printed.

T1 sequence (P25942 21-193 limits assumed): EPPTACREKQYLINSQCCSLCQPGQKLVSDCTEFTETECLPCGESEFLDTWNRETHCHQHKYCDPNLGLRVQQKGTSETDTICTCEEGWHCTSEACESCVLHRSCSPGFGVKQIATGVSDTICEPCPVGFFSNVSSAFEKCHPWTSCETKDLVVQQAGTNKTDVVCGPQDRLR
T2 sequence (Q9NZQ7 19-238 limits assumed): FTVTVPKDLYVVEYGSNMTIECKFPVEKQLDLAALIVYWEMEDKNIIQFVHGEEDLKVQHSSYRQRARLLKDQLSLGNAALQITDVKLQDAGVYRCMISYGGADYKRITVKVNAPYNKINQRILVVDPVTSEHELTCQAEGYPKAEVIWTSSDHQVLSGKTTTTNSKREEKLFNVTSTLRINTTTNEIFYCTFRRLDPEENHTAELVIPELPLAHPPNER

B1: Ly2453 (multi-specific antibody)
chain 1: not shown
chain 2: QVQLVQSGAEVKKPGASVKVSCKASGYTFTDFWMSWVRQAPGQGLEWMGQIYPNTGTTHSNEKFKGRVTMTRDTSTSTVYMELSSLRSEDTAVYYCARSYHISTTPNWFAYWGQGTLVTVSSASTKGPSVFPLAPSSKSTSGGTAALGCLVKDYFPEPVTVSWNSGALTSGVHTFPAVLQSSGLYSLSSVVTVPSSSLGTQTYICNVNHKPSNTKVDKKVEPKSCGGGGSGGGGSGGGGSGGGGSDIQMTQSPSSVSASVGDRVTITCRASQGIYSWLAWYQQKPGKAPNLLIYTASTLQSGVPSRFSGSGSGTDFTLTISSLQPEDFATYYCQQANIFPLTFGGGTKVEIKGGGGSDKTHTCPPCPAPEAAGPSVFLFPPKPKDTLMISRTPEVTCVVVDVSHEDPEVKFNWYVDGVEVHNAKTKPREEQYNSTYRVVSVLTVLHQDWLNGKEYKCKVSNKALPAPIEKTISKAKGQPREPQVYTLPPSREEMTKNQVSLSCAVKGFYPSDIAVEWESNGQPENNYKTTPPVLDSDGSFFLVSKLTVDKSRWQQGNVFSCSVMHEALHNRFTQKSLSLSPG
chain 3: DIQMTQSPSSLSASVGDRVTITCKASQNVYKKLEWYQQKPGKVPKVLIYHTNILQTGVPSRFSGSGSGTDYTLTISSLQPEDVATYYCYQWNSGPTFGGGTKVEIKRTVAAPSVFIFPPSDEQLKSGTASVVCLLNNFYPREAKVQWKVDNALQSGNSQESVTEQDSKDSTYSLSSTLTLSKADYEKHKVYACEVTHQGLSSPVTKSFNRGEC
notes: PD-L1/CD40
Consider B1, for which the binding result with CD40 is listed as “binds”.

B2: Ly2454 (multi-specific antibody, human IgG1, kappa)
chain 1: not shown
chain 2: QVQLVQSGAEVKKPGASVKVSCKASGYTFTDFWMSWVRQAPGQGLEWMGQIYPNTGTTHSNEKFKGRVTMTRDTSTSTVYMELSSLRSEDTAVYYCARSYHISTTPNWFAYWGQGTLVTVSSASTKGPSVFPLAPSSKSTSGGTAALGCLVKDYFPEPVTVSWNSGALTSGVHTFPAVLQSSGLYSLSSVVTVPSSSLGTQTYICNVNHKPSNTKVDKKVEPKSCDKTHTCPPCPAPEAAGPSVFLFPPKPKDTLMISRTPEVTCVVVDVSHEDPEVKFNWYVDGVEVHNAKTKPREEQYNSTYRVVSVLTVLHQDWLNGKEYKCKVSNKALPAPIEKTISKAKGQPREPQVYTLPPSREEMTKNQVSLSCAVKGFYPSDIAVEWESNGQPENNYKTTPPVLDSDGSFFLVSKLTVDKSRWQQGNVFSCSVMHEALHNRFTQKSLSLSPGGGGGSGGGGSGGGGSGGGGSDIQMTQSPSSVSASVGDRVTITCRASQGIYSWLAWYQQKPGKAPNLLIYTASTLQSGVPSRFSGSGSGTDFTLTISSLQPEDFATYYCQQANIFPLTFGGGTKVEIK
chain 3: B1 chain 3
notes: PD-L1/CD40
On to B2, for which the binding result with CD40 is “binds”.

B3: Ly2846 (multi-specific antibody)
chain 1: QVQLVQSGAEVKKPGASVKVSCKASGYTFTSYVMHWVRQKPGQGLEWIGYINPYNEGTESTDKFKGRATMTSDKSTSTVYMELSSLRSEDTAVYYCASIYYGYEGTYFGVWGQGTLVTVSSASTKGPSVFPLAPSSKSTSGGTAALGCLVKDYFPEPVTVSWNSGALTSGVHTFPAVLQSSGLYSLSSVVTVPSSSLGTQTYICNVNHKPSNTKVDKKVEPKSCGGGGSGGGGSGGGGSGGGGSEVQLVESGGGLVQPGGSLRLSCAASGFTFSTYAMNWVRQAPGKGLEWVGRIRSKYNNYATYYADSVKGRFTISRDDSKNSLYLQMNSLKTEDTAVYYCVRHGNFGNSYVSWFAYWGQGTLVTVSSGGGGSDKTHTCPPCPAPELLGPSVFLFPPKPKDTLMISRTPEVTCVVVDVSHEDPEVKFNWYVDGVEVHNAKTKPREEQYNSTYRVVSVLTVLHQDWLNGKEYKCKVSNKALGAPIEKTISKAKGQPREPQVYTLPPSREEMTKNQVSLWCLVKGFYPSDIAVEWESNGQPENNYKTTPPVLDSDGSFFLYSKLTVDKSRWQQGNVFSCSVMHEALHNHYTQKSLSLSPGKGGGGSGGGGSGGGGSGGGGSQVQLVQSGAEVKKPGASVKVSCKASGYTFTDFWMSWVRQAPGQGLEWMGQIYPNTGTTHSNEKFKGRVTMTRDTSTSTVYMELSSLRSEDTAVYYCARSYHISTTPNWFAYWGQGTLVTVSS
chain 2: QVQLVQSGAEVKKPGASVKVSCKASGYTFTSYVMHWVRQKPGQGLEWIGYINPYNEGTESTDKFKGRATMTSDKSTSTVYMELSSLRSEDTAVYYCASIYYGYEGTYFGVWGQGTLVTVSSASTKGPSVFPLAPSSKSTSGGTAALGCLVKDYFPEPVTVSWNSGALTSGVHTFPAVLQSSGLYSLSSVVTVPSSSLGTQTYICNVNHKPSNTKVDKKVEPKSCGGGGSGGGGSGGGGSGGGGSQAVVTQEPSLTVSPGGTVTLTCRSSTGAVTTSNYANWVQQKPGQAPRGLIGGTNKRAPWTPARFSGSLLGGKAALTITGAQAEDEADYYCALWYSNLWVFGGGTKLTVLGGGGSDKTHTCPPCPAPELLGPSVFLFPPKPKDTLMISRTPEVTCVVVDVSHEDPEVKFNWYVDGVEVHNAKTKPREEQYNSTYRVVSVLTVLHQDWLNGKEYKCKVSNKALGAPIEKTISKAKGQPREPQVYTLPPSREEMTKNQVSLSCAVKGFYPSDIAVEWESNGQPENNYKTTPPVLDSDGSFFLVSKLTVDKSRWQQGNVFSCSVMHEALHNRFTQKSLSLSPGKGGGGSGGGGSGGGGSGGGGSDIQMTQSPSSLSASVGDRVTITCKASQNVYKKLEWYQQKPGKVPKVLIYHTNILQTGVPSRFSGSGSGTDYTLTISSLQPEDVATYYCYQWNSGPTFGGGTKVEIK
chain 3: EIVLTQSPATLSLSPGERATLSCRASSSVSYMHWYQQKPGQAPRPWIYATSNLASGIPARFSGSRSGTDYTLTISSLEPEDFAVYYCQQWSSNTLTFGGGTKVEIKRTVAAPSVFIFPPSDEQLKSGTASVVCLLNNFYPREAKVQWKVDNALQSGNSQESVTEQDSKDSTYSLSSTLTLSKADYEKHKVYACEVTHQGLSSPVTKSFNRGEC
notes: anti-B7H3/CD3/PD-L1
For B3, in the experiment with PD-L1, the binding result is recorded as “binds”.

B4: Ly2802 (multi-specific antibody)
chain 1: QVQLQQSGAELVRPGSSVKISCKASGYAFSSYWMNWVKQRPGQGLEWIGQIWPGDGDTNYNGKFKGKATLTADESSSTAYMQLSSLASEDSAVYFCARRETTTVGRYYYAMDYWGQGTTVTVSSASVAAPSVFIFPPSDEQLKSGTASVVCLLNNFYPREAKVQWKVDNALQSGNSQESVTEQDSKDSTYSLSSTLTLSKADYEKHKVYACEVTHQGLSSPVTKSFNRGECGGGGSGGGGSGGGGSGGGGSEVQLVESGGGLVQPGGSLRLSCAASGFTFSTYAMNWVRQAPGKGLEWVGRIRSKYNNYATYYADSVKGRFTISRDDSKNSLYLQMNSLKTEDTAVYYCVRHGNFGNSYVSWFAYWGQGTLVTVSSGGGGSDKTHTCPPCPAPELLGPSVFLFPPKPKDTLMISRTPEVTCVVVDVSHEDPEVKFNWYVDGVEVHNAKTKPREEQYNSTYRVVSVLTVLHQDWLNGKEYKCKVSNKALGAPIEKTISKAKGQPREPQVYTLPPSREEMTKNQVSLWCLVKGFYPSDIAVEWESNGQPENNYKTTPPVLDSDGSFFLYSKLTVDKSRWQQGNVFSCSVMHEALHNHYTQKSLSLSPGKGGGGSGGGGSGGGGSGGGGSQVQLVQSGAEVKKPGASVKVSCKASGYTFAGFEMHWVRQAPGQGLEWMGAIDPKTGGTDYNQKFKDRVTMTRDTSISTAYMELSRLRSDDTAVYYCARDLGYFDVWGQGTLVTVSS
chain 2: QVQLQQPGAELVKPGASVKMSCKASGYTFTSYNMHWVKQTPGRGLEWIGAIYPGNGDTSYNQKFKGKATLTADKSSSTAYMQLSSLTSEDSAVYYCARSTYYGGDWYFNVWGAGTTVTVSAASTKGPSVFPLAPSSKSTSGGTAALGCLVKDYFPEPVTVSWNSGALTSGVHTFPAVLQSSGLYSLSSVVTVPSSSLGTQTYICNVNHKPSNTKVDKKVEPKSCGGGGSGGGGSGGGGSGGGGSQAVVTQEPSLTVSPGGTVTLTCRSSTGAVTTSNYANWVQQKPGQAPRGLIGGTNKRAPWTPARFSGSLLGGKAALTITGAQAEDEADYYCALWYSNLWVFGGGTKLTVLGGGGSDKTHTCPPCPAPELLGPSVFLFPPKPKDTLMISRTPEVTCVVVDVSHEDPEVKFNWYVDGVEVHNAKTKPREEQYNSTYRVVSVLTVLHQDWLNGKEYKCKVSNKALGAPIEKTISKAKGQPREPQVYTLPPSREEMTKNQVSLSCAVKGFYPSDIAVEWESNGQPENNYKTTPPVLDSDGSFFLVSKLTVDKSRWQQGNVFSCSVMHEALHNHYTQKSLSLSPGKGGGGSGGGGSGGGGSGGGGSDIQMTQSPSSLSASVGDRVTITCRASQDIRSNLNWYQQKPGGAVKLLIYYTSRLHSGVPSRFSGSGSGTDYTLTISSLQPEDFATYFCQQSEKLPRTFGGGTKVEIR
chain 3: DIQLTQSPASLAVSLGQRATISCKASQSVDYDGDSYLNWYQQIPGQPPKLLIYDASNLVSGIPPRFSGSGSGTDFTLNIHPVEKVDAATYHCQQSTEDPWTFGGGTKLEIKSSASTKGPSVFPLAPSSKSTSGGTAALGCLVKDYFPEPVTVSWNSGALTSGVHTFPAVLQSSGLYSLSSVVTVPSSSLGTQTYICNVNHKPSNTKVDKKVEPKSC
chain 4: QIVLSQSPAILSASPGEKVTMTCRASSSVSYIHWFQQKPGSSPKPWIYATSNLASGVPVRFSGSGSGTSYSLTISRVEAEDAATYYCQQWTSNPPTFGGGTKLEIKRTVAAPSVFIFPPSDEQLKSGTASVVCLLNNFYPREAKVQWKVDNALQSGNSQESVTEQDSKDSTYSLSSTLTLSKADYEKHKVYACEVTHQGLSSPVTKSFNRGEC
notes: CD19/CD20/CD3/CD137
For B4, the binding result in the experiment with CD137 and with CD19 was “binds” throughout.

B5: Ly2944 (multi-specific antibody)
chain 1: B4 chain 1
chain 2: B4 chain 2 with H572R, Y573F
chain 3: B4 chain 3
chain 4: B4 chain 4
notes: CD19/CD20/CD3/CD137
For the molecule B5, the binding result in the experiment with CD137 and with CD19 was “binds” throughout.
